Source: the supplement of paper PMC9170038

Legend:
[1] = system: K4 kissing-loop RNA reporter; assay: apparent KD of K4 kissing-loop reporter; higher = weaker reporter binding; conditions: Eterna round: R107;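 further: bound reporter read as fluorescence of individual clusters on recovered sequencing chips by microscopy, with normalized cluster intensities fitted with a binding model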
Description: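 RNA-MaP round R107: designed RNA switches with theophylline, tryptophan, arginine or FMN aptamers are transcribed on-chip within common flanks. They are titrated with a labelled K4 kissing-loop RNA reporter in RNA-MaP buffer (100 mM Tris pH 7.5, 80 mM KCl, 4 mM MgCl2), without ligand or with the indicated ligand. Median apparent KD per design.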

MS2 coat protein = assay: apparent KD of MS2 coat protein; designed switch direction (-1 OFF switch, 1 ON switch): -1; higher = weaker reporter binding
Summary of the method: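 For each design, the apparent KD is the median over clusters of curves fitted to normalised cluster fluorescence. Clusters held RNA switches with common flanks, transcribed on Illumina chips by stalled E. coli RNA polymerase. These were titrated with SNAP-549-labelled MS2 coat protein, doubling from 0.7 or 1.5 nM to 3 µM, without input, with 200 uM small-molecule ligand, or with an oligonucleotide input.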

[2] = input ligand: theophylline 20 uM
[3] = input ligand: tryptophan 2.4 mM
[4] = Eterna round: R95, input ligand: microRNA oligo, concentration not stated
[5] = Eterna round: R95, input ligand: FMN 200 uM
[6] = Eterna round: R95, input ligand: none

| Sequence | apparent KD of K4 kissing-loop reporter ([1]; input ligand: FMN 200 uM) [nM] | apparent KD of K4 kissing-loop reporter ([1]; input ligand: arginine 13.2 mM) [nM] | apparent KD of K4 kissing-loop reporter ([1]; input ligand: none) [nM] | apparent KD of K4 kissing-loop reporter [1, 2] [nM] | apparent KD of K4 kissing-loop reporter [1, 3] [nM] | apparent KD of MS2 coat protein (MS2 coat protein; [4]) [nM] | apparent KD of MS2 coat protein (MS2 coat protein; input ligand: FMN 200 uM) [nM] | apparent KD of MS2 coat protein (MS2 coat protein; input ligand: microRNA oligo, concentration not stated) [nM] | apparent KD of MS2 coat protein (MS2 coat protein; input ligand: none) [nM] | apparent KD of MS2 coat protein (MS2 coat protein; [5]) [nM] | apparent KD of MS2 coat protein (MS2 coat protein; [6]) [nM] |
| --- | --- | --- | --- | --- | --- | --- | --- | --- | --- | --- | --- |
| ACACUUUACGUAGGAUAUGCGACGAGUGAUGUUCGUCAGGCGGCUUUAGCUUAAUCAGGCCGCCUAGCAGAAGGACGGGCAGUGU [Zaretiesre] | 142 | 149 | 199 | 195 | 181 |  |  |  |  |  |  |
| UAGUAUAAUCUGUCGUUUACAAUAUUUAGUCAGGAUAUCGUAUAUUCGAGAAGGGACACUAUCUAGUGAUGUUAGAUAUUUCUUU [JR_ExcFMNA_Sub013] | 46.8 | 78.2 | 54.9 | 71.4 | 52.8 |  |  |  |  |  |  |
| UAUCUUUACUGAAGGAGCGAGCAUUUUGGAGUGAUGUUCCGAGCGAGUGAUGUUCGCAUAGCUCAGGUAGGUCGCAGUGGGAAAA [Same State Arginie B GF 15] | 152 | 149 | 143 | 162 | 138 |  |  |  |  |  |  |
| AGGGAUGAUGGAUAAAUAAACAAAAGGGAUACCAGUCAAAUAAUAGGCCCUUGGCAGCUUUAGAUCAGUGAUGUUGAAGAUAUUG [Theophylline A Same State; Euphoria Solution] | 84.1 | 127 | 93 | 159 | 78.5 |  |  |  |  |  |  |
| AUUUAAUGUAUAGAUUAUAUACAUUAUUCAGAGGAUAUGCAUUGAAGCAGAAGGCUGGGUGUAGUGAUGUUGCAAUUUUAAUUUA [whbob_SS_FMNA__2th172] | 118 | 184 | 159 | 299 | 84.1 |  |  |  |  |  |  |
| CUAUGGAAACAUAGUGAUCGGGAAACCGAUACCAGUAUGGAAACAUACCCUUGGCAGCGGAAUGAUCUAACGGAGUGAUGUUCCG [Theophylline A K4 23] | 492 | 456 | 574 | 389 | 496 |  |  |  |  |  |  |
| AGGCAAUAUGCGGCCGCCACUUUCAGUGAUGUUGAGACGCGGAAUGUUGUAUAAUAUCGCCACGAAAGGACCGGGCAAGGGAAAG [theeternabot_exclusion_KL_Trp_B_5] | 691 | 434 | 542 | 423 | 355 |  |  |  |  |  |  |
| UCGAAAUGCGUCUCCUAGUUACUCCGGGAAGGAGCGUGGAUAACCGCAGGUAGGUCGCCCGGAAGCCGGACCAGUGAUGUUGGUC [Exclusion Arginine A Gf 29] | 216 | 179 | 221 | 186 | 182 |  |  |  |  |  |  |
| GAUGAAGAGUCGUUAGUUAGGGCUUUCGAUACCAGCGCCCGUCCACGCCCUUGGCAGCGAUUGAAAGAGUGAUGUUCUGUCAGGA [theeternabot_exclusion_KL_Theo_A_31] | 578 | 309 | 546 | 741 | 289 |  |  |  |  |  |  |
| UGACUGGAUGGAAGGAGCGCUAAACUCCUAGUGAUGUUAGGGACACGAGGCAAAGCCUCGAAGCAGGUAGGUCGCCAUCUAGUCU [FiskerMod 22 - Jieux - Same State - Arginine B] | 184 | 148 | 174 | 182 | 167 |  |  |  |  |  |  |
| AAAUGUUUGUAUUUGAACAAUUUCUUUAGGGAGGAUAUUGGUAAUACAAGAAGGCCCUGAUGGGAGUGAUGUUCCCAUAACGCGG [Exclusion FMN A GF15] | 46.7 | 83.9 | 74 | 87.5 | 62.1 |  |  |  |  |  |  |
| GGGAGUAGUGCGGCCGCCACUGAGAAAGAAGAAGAAUGUAGUGAUGUUAUGUAGGAAAGGAAGAACAGGACCGGGCAUUAGAUUU [SSTRyptB.H] | 478 | 443 | 354 | 840 | 497 |  |  |  |  |  |  |
| CCUAUCUCAUACGAUACCAGUCGUCGAGUGAUGUUCGAUUAAAUAUAUUUGCCAAAUAACGACCCUUGGCAGCGUAUGGGAUAGG [Ex Theophylline B K4 17] | 367 | 328 | 340 | 417 | 314 |  |  |  |  |  |  |
| GGCAGUGAUGUUGCCAGUGGCAGAUGCGAAGGAGCGCGGUGAGACGCAGGUAGGUCGCGCAUUGAAAUUGCUGUCACUAAAAUGC [#1] | 261 | 274 | 290 | 320 | 238 |  |  |  |  |  |  |
| ACGUGCACCAGUGAUGUUGGAAAAUAUGAAGGAGCGGGUGAAAACCCAGGUAGGUCGCAUAAUAGCACGAGCCACGAAAGUGGCA | 125 | 138 | 157 | 128 | 122 |  |  |  |  |  |  |
| AAGUGAUGUUGUAGUGAUGUUGUGAUGUUGCAGGAUAUAUAGUGAUGUAGAAGGGUAAGUACUGAUGUUGUUUGUGAGUGAUGUU [zrrszrmullin] | 99.2 | 44.9 | 78.6 | 66.9 | 76.2 |  |  |  |  |  |  |
| AAUUGGGACGAAGGAUAUUGUCGGCCAUGUACGAGGUCCGGAUGUCAUGACUGUUAGUGAUGUUAACAAGAAGGUCGAGGGAGAC [theeternabot_exclusion_KL_FMN_B_25] | 87 | 107 | 103 | 119 | 86.3 |  |  |  |  |  |  |
| AAUGUACAGGGAAGGAGCGCCGUCCAGUGAUGUUGGAGUUAAAUACCAGUGAUGUUGGUUAGGCAGGUAGGUCGCCCUAUAGUAU [#07 K4 Arginine B Exclusion] | 126 | 92.9 | 117 | 134 | 108 |  |  |  |  |  |  |
| UUCCACCGAGAAGGAUAUUAUGCUGGACUUGUUUAAGUGUUAAAUAGUGAUGUUAUUUGAUCGGAAUAAGAAGGUCUCAAGUUGA [theeternabot_sameState_KL_FMN_B_44] | 155 | 131 | 145 | 142 | 119 |  |  |  |  |  |  |
| AGUAGUUGGACGGCCGCCACUAGAACGCCUUUGCCAAAGGCAGAGGACUAGAGUGAUGUUCUAGCUAGGACCGGGUCCAACUACA [Omei KL Tryp B SS A v4] | 224 | 232 | 308 | 127 | 1220 |  |  |  |  |  |  |
| GGAUAGGAUAGAGGAUAUGGGCUAGGCAAGAAUAACUUGUCUAGCAAAUCCAUGAGGAGUGAUGUUCCAGAAGGCUGUCCUAUCG [FmnBX 1 U9] | 901 | 169 | 152 | 211 | 128 |  |  |  |  |  |  |
| UAUUCUUAUCUUAGUUGAUUUCUAAUUAAACGAGGACCGGUACGGCCGCCACUCGGUUAUGAGUGAUGUUCAUGGAAUUACAUAA [JR_SSTryptoA_Sub020] | 275 | 481 | 413 | 548 | 143 |  |  |  |  |  |  |
| AAUAAGUGUCAGCGAGUGAUGUUCGACGAUACCAGCCUCGAUAGAGGCCCUUGGCAGCGUAACGCAUGCCAAACUGGCACAAUAA [#SwitchBubble 7 #K4Early] | 500 | 497 | 557 | 393 | 441 |  |  |  |  |  |  |
| UGGAGUUGACGAAAAGUCAACUCCUGAGAUACCAGUGACGAAAGUCACCCUUGGCAGCUCACUGCCAGUGAUGUUGGAACUAAAG [#02 K4 Theophylline A Same State] | 308 | 158 | 256 | 452 | 216 |  |  |  |  |  |  |
| ACCUUACAUGAGGAUCACCCAUGUCAGGAUAUCUCGGGCGGCUGGAGACCAGCCGCCCAGAGAAGGGACGAGGA [Engeisbe] (puzzle: Exclusion 1) |  |  |  |  |  | 12.2 |  |  |  |  |  |
| UGUUGUUACGUAGGAUAUCCACCAACAGGUGGAAGGAUAUGUACGCAGAAGGUUCGCCAACAGGCGGAGAAGGACGUGUUAACA [pwkr exNG2 2xF7 2xFMN.28] (Eterna round: R96, puzzle: Exclusion NG 2) |  |  |  |  |  |  | 675 | 1110 | 385 |  |  |
| AUAAUAAAGGAGGAUAUCGUAACGGAAACGUUACGAGAAGGUCUAACAUGAGGAUCACCCAUGUUCCUCAAAUA [Mat - Exclusion 6 - Eli Mod - D50] (puzzle: Exclusion 6) |  |  |  |  |  | 35.4 |  |  |  | 47.8 | 47 |
| CUGGUCCGAGGAUAUAUUAAGUGAUACAUGAGGAUCACCCAUGUUAUUUAAUGGAUGUAAAUAGAAGGCGGACUAG [Mat - Exclusion 5 - JL mod - D70] (puzzle: Exclusion 5) |  |  |  |  |  | 42.6 |  |  |  | 51 | 44.6 |
| ACAAGCUUUUUGUUCGUCUUAUAAUAAUAAAUAAAUAUAACAUGAGGAUCACCCAUGUUAAGAAGACGGCCUCAUGU [Sesor Array 21 - Jieux - Sensor v3, turn-off variant 2] (puzzle: Sensor v3, turn-off variant 2) |  |  |  |  |  | 174 |  |  |  | 82.2 | 71.8 |
| CCUCAACAGUAGGAUAUCAUAUAACUAUUGUGAUGAGAAGGACUGACAUGAGGAUCACCCAUGUUAACGUGAUA [Exclusion 6 - 5:b] (puzzle: Exclusion 6) |  |  |  |  |  | 17.3 |  |  |  |  |  |
